Reference: US20050059058A1 (CASE WESTERN RESERVE UNIVERSITY, published 2005)

T1: FtsZ protein (native, unlabelled) (Escherichia coli, UniProt P0A9A6 1-383)
T1 construct: also called native FtsZ; immobilized FtsZ
T1 sequence (looked up): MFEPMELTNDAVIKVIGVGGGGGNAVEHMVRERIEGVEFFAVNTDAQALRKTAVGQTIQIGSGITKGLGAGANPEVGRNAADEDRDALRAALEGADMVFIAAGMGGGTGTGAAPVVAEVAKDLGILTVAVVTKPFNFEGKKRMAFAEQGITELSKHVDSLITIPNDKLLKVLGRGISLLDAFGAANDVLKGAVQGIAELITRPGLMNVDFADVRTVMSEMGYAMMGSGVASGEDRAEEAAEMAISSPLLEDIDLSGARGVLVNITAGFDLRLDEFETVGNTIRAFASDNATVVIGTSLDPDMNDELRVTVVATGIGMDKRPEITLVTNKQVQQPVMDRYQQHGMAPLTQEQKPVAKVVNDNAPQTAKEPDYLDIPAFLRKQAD

B1: soluble fragment of ZipA (the 39-328 peptide) (other)
chain: not shown
notes: also called portion or fragment of the ZipA protein
B2: HFKT-MinE fusion protein (15.9 kD, encoded by pDB311), 32P-labelled (other, Escherichia coli)
chain: MGHHHHHHHHHHSSGHIEGRHMDYKDDDDKARRASVEFHMASMTGGQQMGRGSDFFLSRKKNTANIAKERLQIIVAERRRSDAEPHYLPQLRKDILEVICKYVQIDPEMVTVQLEQKDGDISILELNVTLPEAEELK
modifications: 32P-phosphorylated in vitro by bovine heart muscle kinase at the kinase substrate site of the HFKT tag
notes: range 5-88; Negative control probe; also called HKFT-MinE; radiolabelled HKFT-MinE

What was measured:
[1] = molecular target: T1, FtsZ protein (native, unlabelled); assay: assay not described
ZipA protein of E. coli = molecular target: T2, ZipA protein of E. coli (Escherichia coli, UniProt B1IX59 1-328); assay: affinity blotting (far Western) with 32P-labelled probe
T2 construct: Complete ZipA as present in the insoluble (P200) fraction of E. coli, or overproduced from the zipA ORF in a T7 system; on blots after boiling in SDS; also called 50 Kd band
Description: To address the possibility that other proteins interact with FtsZ, the present inventors searched for proteins with affinity to FtsZ. In one approach, a FtsZ derivative (HFKT-FtsZ) was made which carries at the N-terminus a histidine-tag (the his-tag is useful for purification by metal chelate affinity chromatography such as that described in U.S. Pat. No. 5,310,663, hereby incorporated by reference) as well s a substrate site for heart muscle kinase. The purified protein was radiolabeled in vitro by incubation with kinase and [γ³²P]ATP and used as a probe on Western blots.
After the addition of one volume of electrophoresis sample buffer (125 mM Tris.Cl, 4% SDS, 20% glycerol, 1.4 M (β-mercaptoethanol, pH=6.6), samples (e.g., whole cells boiled in sample buffer, or fractionated cells) were held in a boiling water bath for 5 min., and subjected to conventional SDS-PAGE on 0.75 mm thick 10% T/2.7% C gels. Electrophoretic transfer to nitrocellulose filter (0.2μ) was performed in a Genie blotter (Idea Scientific Co.) with regular Towbin buffer (25 mM Tris.Cl, 192 mM glycine, 20% methanol, pH 8.3) at 12 V for 30 min. To monitor the transfer and to visualize the molecular weight standards, filters were treated with the reversible stain Ponceau S (0.1% in 5% acetic acid) for 1 min. Filters were next destained in 10 mM Tris-Cl, rinsed in water, and allowed to dry for 15 min in air.

Binder	binding result [1]	binding result (ZipA protein of E. coli)
B1	binds	–
B2	–	no binding
